Data: the supplement of paper PMC7877785
± gives the uncertainty stated by the source.

Experiment: self-splicing fitness, log relative to wild type (ln ratio); higher = more splicing; Tetrahymena group I intron in knt gene, E. coli kanamycin selection, DiMSum; sequences stand for … in CUCUCU…GGAGGGAAAAGUUAUCAGGCAUGCACCUGGUAGCUAGUCUUUAAACCAAUAGAUUGCAUCGGUUUAAAAGGCAAGACCGUCAAAUUGCGGGAAAGGGGUCAACAGCCGUUCAGUACCAAGUCUCAGGGGAAACUUUGAGAUGGCCUUGCAAAGGGUAUGGUAAUAAGCUGACGGACAUGGUCCUAACCACGCAGCCAAGUCCUAAGUCAACAGAUCUUCUGUUGAUAUGGAUGCAGUUCACAGACUAAAUGUCGGUCGGGGAAGAUGUAUUCUUCUCAUAAGAUAUAGUCGGACCUCUCCUUAAUGGGAGCUAGCGGAUGAAGUGAUGCAACACUGGAGCCGCUGGGAACUAAUUUGUAUGCGAAAGUAUAUUGAUUAGUUUUGGAGUACUCGUGGUCG
Summary of the method: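 Pooled colonies went to amplicon sequencing on an Illumina HiSeq 2500 after six replicate transformations. The plates were LB agar with 100 μg/mL carbenicillin, 50 μM IPTG and 0.2% rhamnose, with or without 25 μg/mL kanamycin, incubated overnight at 37°C or 30°C. The E. coli BL21(DE3) library had all eight P1ex-region intron nucleotides randomised, the intron placed in the knt kanamycin-resistance gene on pET-22b(+). DiMSum fitness is the error-weighted combination of replicate fold changes, kanamycin against none, normalised to wild type.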

| Sequence | self-splicing fitness (ln) (30 °C) | self-splicing fitness (ln) (37 °C) |
| --- | --- | --- |
| GCAUAGCAAUAUUACGAGUA | -1.63 ± 0.15 | -1.23 ± 0.12 |
| GCAUAGCAAUAUUACGAUCC | -0.993 ± 0.19 | 0.0935 ± 0.28 |
| GCAUAGCAAUAUUACGAUCU | -0.849 ± 0.075 | -0.178 ± 0.081 |
| GCAUAGCAAUAUUACGCCCC | -0.129 ± 0.26 | 0.692 ± 0.34 |
| GCAUAGCAAUAUUACGCUAU | -4.09 ± 0.28 | -1.97 ± 0.25 |
| GCAUAGCAAUAUUACGCUCA | -0.595 ± 0.12 | -0.211 ± 0.15 |
| GCAUAGCAAUAUUACGCUCU | -1.81 ± 0.12 | -0.894 ± 0.12 |
| GCAUAGCAAUAUUACGCUGA | -2.69 ± 0.24 | -1.06 ± 0.14 |
| GCAUAGCAAUAUUACGCUUU | -3.17 ± 0.2 | -2.88 ± 0.18 |
| GCAUAGCAAUAUUACGGAAA | -1.6 ± 0.31 | -1.88 ± 0.25 |
| GCAUAGCAAUAUUACGGAUG | -3.15 ± 0.15 | -0.657 ± 0.13 |
| GCAUAGCAAUAUUACGGCCA | -1.05 ± 0.19 | -1.17 ± 0.21 |
| GCAUAGCAAUAUUACGUACA | -1.56 ± 0.15 | -0.421 ± 0.13 |
| GCAUAGCAAUAUUACGUGAU | -1.64 ± 0.066 | -0.927 ± 0.08 |
| GCAUAGCAAUAUUACGUGCA | -2.74 ± 0.17 | -1.21 ± 0.14 |
| GCAUAGCAAUAUUACGUGCU | -3.32 ± 0.15 | -3.44 ± 0.26 |
| GCAUAGCAAUAUUACGUUAG | -2.48 ± 0.12 | -1.96 ± 0.15 |
| GCAUAGCAAUAUUACGUUGG | -3.88 ± 0.22 | -2.28 ± 0.18 |
| GCAUAGCAAUAUUACGUUUG | -3.21 ± 0.13 | -1.91 ± 0.15 |
| GCCAAGCAAUAUUACGAACA | -2.36 ± 0.16 | -2.2 ± 0.17 |
| GCCAAGCAAUAUUACGAUAC | -2.45 ± 0.17 | -0.963 ± 0.14 |
| GCCAAGCAAUAUUACGAUUU | -2.95 ± 0.096 | -1.15 ± 0.09 |
| GCCAAGCAAUAUUACGCAGU | -2.82 ± 0.13 | -1.22 ± 0.14 |
| GCCAAGCAAUAUUACGCGAA | -1.2 ± 0.1 | -0.257 ± 0.11 |

| Sequence | self-splicing fitness (ln) (30 °C) | self-splicing fitness (ln) (37 °C) |
| --- | --- | --- |
| GCCAAGCAAUAUUACGCUUA | -1.02 ± 0.086 | -0.264 ± 0.11 |
| GCCAAGCAAUAUUACGGACU | -1.16 ± 0.077 | -0.389 ± 0.1 |
| GCCAAGCAAUAUUACGGAUU | -1.2 ± 0.056 | -0.294 ± 0.08 |
| GCCAAGCAAUAUUACGGGAC | -3.02 ± 0.15 | -0.694 ± 0.099 |
| GCCAAGCAAUAUUACGGGCA | -2.12 ± 0.14 | -0.482 ± 0.12 |
| GCCAAGCAAUAUUACGUAAA | -1.63 ± 0.1 | -0.72 ± 0.13 |
| GCCAAGCAAUAUUACGUGGU | -3.65 ± 0.13 | -3.27 ± 0.17 |
| GCCAAGCAAUAUUACGUGUG | -1.8 ± 0.07 | -0.823 ± 0.08 |
| GCCAAGCAAUAUUACGUUAG | -1.93 ± 0.12 | -2.64 ± 0.2 |
| GCCAAGCAAUAUUACGUUCU | -2.45 ± 0.081 | -1.53 ± 0.088 |
| GCCCAGCAAUAUUACGAAGC | -2.36 ± 0.19 | -0.479 ± 0.2 |
| GCCCAGCAAUAUUACGAGAU | -1.54 ± 0.12 | -0.957 ± 0.091 |
| GCCCAGCAAUAUUACGAUCA | -1.65 ± 0.11 | -0.633 ± 0.1 |
| GCCCAGCAAUAUUACGAUGA | -2.14 ± 0.18 | -0.287 ± 0.14 |
| GCCCAGCAAUAUUACGAUGU | 0.0553 ± 0.048 | 0.51 ± 0.069 |
| GCCCAGCAAUAUUACGCGUC | -1.17 ± 0.067 | -0.202 ± 0.075 |
| GCCCAGCAAUAUUACGCUGG | -2.86 ± 0.15 | -3.32 ± 0.28 |
| GCCCAGCAAUAUUACGGCAU | -3.47 ± 0.13 | -1.01 ± 0.1 |
| GCCCAGCAAUAUUACGGUAG | -4.78 ± 0.23 | -2.51 ± 0.19 |
| GCCCAGCAAUAUUACGGUCC | -3.39 ± 0.18 | -1.97 ± 0.28 |
| GCCCAGCAAUAUUACGUAAC | -0.899 ± 0.074 | -0.153 ± 0.1 |
| GCCCAGCAAUAUUACGUAUG | -3.42 ± 0.18 | -2.09 ± 0.18 |
| GCCCAGCAAUAUUACGUCAG | -3.98 ± 0.2 | -2.82 ± 0.23 |
